This note sets out measurements from article PMC2822101 (Journal of molecular biology, 2009).

B2: aggregated glucose-6-phosphate dehydrogenase (G6PDH) from Leuconostoc mesenteroides (enzyme, UniProt P11411 1-486, looked up)
chain: MVSEIKTLVTFFGGTGDLAKRKLYPSVFNLYKKGYLQKHFAIVGTARQALNDDEFKQLVRDSIKDFTDDQAQAEAFIEHFSYRAHDVTDAASYAVLKEAIEEAADKFDIDGNRIFYMSVAPRFFGTIAKYLKSEGLLADTGYNRLMIEKPFGTSYDTAAELQNDLENAFDDNQLFRIDHYLGKEMVQNIAALRFGNPIFDAAWNKDYIKNVQVTLSEVLGVEERAGYYDTAGALLDMIQNHTMQIVGWLAMEKPESFTDKDIRAAKNAAFNALKIYDEAEVNKYFVRAQYGAGDSADFKPYLEELDVPADSKNNTFIAGELQFDLPRWEGVPFYVRSGKRLAAKQTRVDIVFKAGTFNFGSEQEAQEAVLSIIIDPKGAIELKLNAKSVEDAFNTRTIDLGWTVSDEDKKNTPEPYERMIHDTMNGDGSNFADWNGVSIAWKFVDAISAVYTADKAPLETYKSGSMGPEASDKLLAANGDAWVFKG

Holding throughout (experiment): retention with aggregates on a 0.1-μm filter, SDS-PAGE
The target of experiment [1] is B2.
The target of the next experiment is ClpB95(E279Q/E678Q) (E. coli, UniProt P63284 1-857, E279Q | E678Q).
Another experiment addresses DnaK (UniProt P0A6Y8 1-638).

B1: DnaJ (natural protein, UniProt P08622 1-376, looked up)
chain: MAKQDYYEILGVSKTAEEREIRKAYKRLAMKYHPDRNQGDKEAEAKFKEIKEAYEVLTDSQKRAAYDQYGHAAFEQGGMGGGGFGGGADFSDIFGDVFGDIFGGGRGRQRAARGADLRYNMELTLEEAVRGVTKEIRIPTLEECDVCHGSGAKPGTQPQTCPTCHGSGQVQMRQGFFAVQQTCPHCQGRGTLIKDPCNKCHGHGRVERSKTLSVKIPAGVDTGDRIRLAGEGEAGEHGAPAGDLYVQVQVKQHPIFEREGNNLYCEVPINFAMAALGGEIEVPTLDGRVKLKVPGETQTGKLFRMRGKGVKSVRGGAQGDLLCRVVVETPVGLNERQKQLLQELQESFGGPTGEHNSPRSKSFFDGVKKFFDDLTR
Turning to B1, in experiment [1], the binding result is recorded as “binds”.
Consider B2, for which the binding result with ClpB95(E279Q/E678Q) and with DnaK was “binds” each time.
